B1: TMPRSS4 Ab74 scFv (VH-VL) (scFv)
scFv: EVQLLESGGGLVQPGGSLRLSCAASGFTFSSYAMHWVRQAPGKGLEWVSSISSSSTYIHYADSVKGRFTISRDNSKNTLYLQMNSLRAEDTAVYYCARVGRYYGSGSSLVDYWGQGTLVTVSSGGGGSGGGGSGGGGSDIQMTQSPSSLSASVGDRVTITCRASQSVSSWLAWYQQKPGKAPKLLIYDASSLQSGVPSRFSGSGSGTDFTLTISSLQPEDFATYYCQQAKSFPPTFGQGTKVEIK
notes: on monoclonal phage in the screen
B2: TMPRSS4 Ab72 scFv (VH-VL) (scFv)
scFv: EVQLLESGGGLVQPGGSLRLSCAASGFTFGAYVMHWVRQAPGKGLEWVSSISGGSTYYADSVKGRFTISRDNSKNTLYLQMNSLRAEDTAVYYCARHPVRGVIGAGWFDPWGQGTLVTVSSGGGGSGGGGSGGGGSDIQMTQSPSSLSASVGDRVTITCRASQNISRWLAWYQQKPGKAPKLLIYAASSLQSGVPSRFSGSGSGTDFTLTISSLQPEDFATYYCQQAISFPLTFGGGTKVEIK
notes: as for B1
B3: TMPRSS4 Ab61 scFv (VH-VL) (scFv)
scFv: QVQLVQSGAEVKKPGASVKVSCKASGYTFTNYYMHWVRQAPGQGLEWMGWMNPNSGNTGYAQNLQGRVTMTRDTSTSTVYMELSSLRSEDTAVYYCARGRTWFRSGMDVWGQGTTVTVSSGGGGSGGGGSGGGGSEIVMTQSPATLSVSPGERATLSCRASQSVSSYLAWYQQKPGQAPRLLIYGASTRATGIPARFSGSGSGTEFTLTISSLQSEDFAVYYCQQYDISVTFGPGTKVDIK
notes: as for B1
B4: TMPRSS4 Ab62 scFv (VH-VL) (scFv)
scFv: QVQLVQSGAEVKKPGASVKVSCKASGYTFTDYYIHWVRQAPGQGLEWMGWISTYNGNTNYAQKLQGRVTMTRDTSTSTVYMELSSLRSEDTAVYYCARGMVRGMDVWGQGTMVTVSSGGGGSGGGGSGGGGSDIVMTQSPDSLAVSLGERATINCKSSQSVLYSSNNKNYLAWYQQKPGQPPKLLIYWASTRESGVPDRFSGSGSGTDFTLTISSLQAEDVAVYYCQQYYTTPWTFGQGTRLEIK
notes: as for B1
B5: TMPRSS4 Ab65 scFv (VH-VL) (scFv)
scFv: QVQLVQSGAEVKKPGASVKVSCKASGYTFTGYYMHWVRQAPGQGLEWMGWMNPNSGNTGYAQKFQGRVTMTRDTSTSTVYMELSSLRSEDTAVYYCAGRKWLGLDFYNWFDPWGQGTLVTVSSGGGGSGGGGSGGGGSDIVMTQSPDSLAVSLGERATINCKSSQSVLYSSNNKNYLAWYQQKPGQPPKLLIYWASTRQSGVPDRFSGSGSGTDFTLTISSLQAEDVAVYYCQQYYSTPWTFGQGTKVEIK
notes: as for B1
B6: TMPRSS4 Ab71 scFv (VH-VL) (scFv)
scFv: EVQLLESGGGLVQPGGSLRLSCAASGFMFDYYAMHWVRQAPGKGLEWVSLISYDGRNKYYADSVKGRFTISRDNSKNTLYLQMNSLRAEDTAVYYCARPGSYSRFQHWGQGTLVTVSSGGGGSGGGGSGGGGSDIQMTQSPSSLSASVGDRVTITCRASQGISNNLNWYQQKPGKAPKLLIYAASSLQSGVPSRFSGSGSGTDFTLTISSLQPEDFATYYCQQANNFPITFGQGTKVEIK
notes: as for B1
B7: TMPRSS4 Ab69 scFv (VH-VL) (scFv)
scFv: EVQLLESGGGLVQHGGSLRLSCAASGFAFSSYVLHWVRQAPGKGLEWVSSISSSSSYIYYADSVKGRFTISRDNSKNTLYLQMNSLRAEDTAVYYCARGDRYPGLPNYWGQGTLVTVSSGGGGSGGGGSGGGGSDIQMTQSPSSLSASVGDRVTITCRASQGISSWLAWYQQKPGKAPKLLIYQASNKDTGVPSRFSGSGSGTDFTLTISSLQPEDFATYYCQQSYRIPWTFGQGTKVEIK
notes: as for B1
B8: TMPRSS4 Ab70 scFv (VH-VL) (scFv)
scFv: EVQLLESGGGLVQPGGSLRLSCAASGFAFSGTWMQWVRQAPGKGLEWVSDISGSSRDTNYADSVKGRFTISRDNSKNTLYLQMNSLRAEDTAVYYCAKDHWDSYGYLDYWGQGTLVTVSSGGGGSGGGGSGGGGSDIQMTQSPSSLSASVGDRVTITCRASQSISGWLAWYQQKPGKAPKLLIYAASTLRDGVPSRFSGSGSGTDFTLTISSLQPEDFATYYCQQANSFPLTFGQGTKVEIK
notes: as for B1
B9: TMPRSS4 Ab63 scFv (VH-VL) (scFv)
scFv: QVQLVQSGAEVKKPGASVKVSCKASGYTFTGYRMHWVRQAPGQGLEWMGVINPNTGTARFAQKFQGRVTMTRDTSTSTVYMELSSLRSEDTAVYYCASVGVYWYFDLWGRGTLVTVSSGGGGSGGGGSGGGGSDIVMTQSPDSLAVSLGERATINCKSSQSVLYSSNNKNYLAWYQQKPGQPPKLLIYWASTRESGVPDRFSGSGSGTDFTLTISSLQAEDVAVYYCQQYYSAPLTFGGGTKVEIK
notes: as for B1
B10: TMPRSS4 Ab66 scFv (VH-VL) (scFv)
scFv: QVQLVQSGAEVKKPGSSVKVSCKASGGTFSSYAISWVRQAPGQGLEWVGGIMPIFGTANYAQKFQGRVTITADESPSTAYMELSSLRSEDTAVYYCATGRRELLNWGQGTLVTVSSGGGGSGGGGSGGGGSEIVMTQSPATLSVSPGERATLSCRASQSVNSRFLAWYQQKPGQAPRLLIYGASTRATGIPARFSGSGSGTEFTLTISSLQSEDFAVYYCMQGTHWPYTFGQGTKVEIK
notes: as for B1
B11: TMPRSS4 Ab67 scFv (VH-VL) (scFv)
scFv: QVQLVQSGAEVKKPGSSVKVSCKASGYTFTSYDINWVRQAPGQGLEWMGGIIPIFGTANYAQKFQGRVTITADESTSTAYMELSSLRSEDTAVYYCATTPGDAFDIWGQGTMVTVSSGGGGSGGGGSGGGGSDIVMTQSPDSLAVSLGERATINCKSSQSVLYSSNNKNYLAWYQQKPGQPPKLLIYWASTRESGVPDRFSGSGSGTDFTLTISSLQAEDVAVYYCQQYSDTPLTFGQGTKVEIK
notes: as for B1
B12: TMPRSS4 Ab7 scFv (VH-VL) (scFv)
scFv: QVQLVQSGAEVKKPGASVKVSCKASGYTFSRYFMHWVRQAPGQGLEWVGWINPNSGNTGYAQKFQGRVTMTRDTSTSTVYMELSSLRSEDTAVYYCARVVTGGRLDVWGQGTTVTVSSGGGGSGGGGSGGGGSEIVMTQSPATLSVSPGERATLSCRASQRVSNNYLAWYQQKPGQAPRLLIYGASTRASGIPARFSGSGSGTEFTLTISSLQSEDFAVYYCQQYGSTPYTFGQGTKVEIK
notes: as for B1
B13: TMPRSS4 Ab76 scFv (VH-VL) (scFv)
scFv: EVQLLESGGGLVQPGGSLRLSCAASGFTFSSYAMSWVRQAPGKGLEWVSAISGSGGNAYYADSVKGRFTISRDNAKNSLYLQMNSLRAEDTAVYYCAKNSWGSYRPRAFDIWGQGTMVTVSSGGGGSGGGGSGGGGSDIVMTQSPDSLAVSLGERATINCKSSQSVLYSSNNKNYLAWYQQKPGQPPKLLIYWASTRASGVPDRFSGSGSGTDFTLTISSLQAEDVAVYYCQQYLSLPYTFGQGTKVEIK
notes: as for B1
B14: TMPRSS4 Ab75 scFv (VH-VL) (scFv)
scFv: EVQLLESGGGLVQPGGSLRLSCAASGFTFSSYAMSWVRQAPGKGLEWVSSISSASSYKYYADSVKGRFTISRDNSKNTLYLQMNSLRAEDTAVYYCARDIYSSGWRGYYYYGMDVWGQGTTVTVSSGGGGSGGGGSGGGGSDIQMTQSPSSLSASVGDRVTITCRASQGIRNDLNWYQQKPGKAPKLLIYAATRLQSGVPSRFSGSGSGTDFTLTISSLQPEDFATYYCQQAHSFPYSFGQGTRLEIK
notes: as for B1
B15: TMPRSS4 Ab64 scFv (VH-VL) (scFv)
scFv: QVQLVQSGAEVKKPGASVKVSCKASGYTFTGYYMHWVRQAPGQGLEWMGMINPSGGGTTYAQKFQGRVTMTRDTSTSTVYMELSSLRSEDTAVYYCARDRRSMITFRTDYWGQGTLVTVSSGGGGSGGGGSGGGGSDIVMTQSPDSLAVSLGERATINCKSSQSVLYSSNNKNYLAWYQQKPGQPPKLLIYWASTRESGVPDRFSGSGSGTDFTLTISSLQAEDVAVYYCQQYYSTPYTFGQGTKLEIK
notes: as for B1

Target: T1, Human TMPRSS4 (Transmembrane protease, serine 4), wild type full length (human, UniProt Q9NRS4 1-437)
T1 construct: Type II membrane protein over-expressed on HEK293T cells (also endogenous on H1975 and LUDLU-1 cells); also called TMPRSS4 WT; HEK293T-TMPRSS4
Experiment: flow cytometry, monoclonal phage on HEK293T-TMPRSS4 cells;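 note: bound phage detected with a PE-labelled mouse anti-M13 monoclonal antibody, read by flow cytometry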

T1 sequence (Q9NRS4 whole entry): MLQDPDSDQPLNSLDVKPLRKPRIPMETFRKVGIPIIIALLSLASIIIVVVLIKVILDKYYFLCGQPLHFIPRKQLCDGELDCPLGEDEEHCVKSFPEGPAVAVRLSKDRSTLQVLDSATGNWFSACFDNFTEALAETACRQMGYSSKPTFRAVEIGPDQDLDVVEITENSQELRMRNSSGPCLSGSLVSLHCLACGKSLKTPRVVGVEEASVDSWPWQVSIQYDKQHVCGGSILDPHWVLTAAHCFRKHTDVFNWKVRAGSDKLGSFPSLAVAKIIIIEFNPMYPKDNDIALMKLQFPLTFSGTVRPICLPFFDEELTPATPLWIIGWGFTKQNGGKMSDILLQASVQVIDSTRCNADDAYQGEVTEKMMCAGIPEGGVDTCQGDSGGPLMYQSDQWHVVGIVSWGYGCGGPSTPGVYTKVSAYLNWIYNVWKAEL

Question: Does B1 bind?
Answer: binds

Question: Does B2 bind?
Answer: binds

Question: Does B3 bind?
Answer: binds

Question: Does B4 bind?
Answer: binds

Question: Does B5 bind?
Answer: binds

Question: Does B6 bind?
Answer: binds

Question: Does B7 bind?
Answer: binds

Question: Does B8 bind?
Answer: binds

Question: Does B9 bind?
Answer: binds

Question: Does B10 bind?
Answer: binds

Question: Does B11 bind?
Answer: binds

Question: Does B12 bind?
Answer: binds

Question: Does B13 bind?
Answer: binds

Question: Does B14 bind?
Answer: binds

Question: Does B15 bind?
Answer: binds
